Target: Hr domain from the Acidothermus cellulolyticus P_(1B-5)-ATPase (P_(1B-5)-Hr) (Acidothermus cellulolyticus 11B)
Assay: SEC

stoichiometry N: 2
Substance: Hr domain from the Acidothermus cellulolyticus P_(1B-5)-ATPase (P_(1B-5)-Hr) (domain or fragment)

— publication PMC2935145
